The chains are these.
B1: MKK6 D-site peptide / p38-alpha (MAPK14) L195A, full length (parent complex)
chain 1: SQSKGKKRNPGLKIPKEAFEQP
chain 2: MSQERPTFYRQELNKTVWEVPERYQNLSPVGSGAYGSVCAAFDTKTGHRVAVKKLSRPFQSIIHAKRTYRELRLLKHMKHENVIGLLDVFTPARSLEEFNDVYLVTHLMGADLNNIVKCQKLTDDHVQFLIYQILRGLKYIHSADIIHRDLKPSNLAVNEDCELKILDFGLARHTDDEMTGYVATRWYRAPEIMANWMHYNQTVDIWSVGCIMAELLTGRTLFPGTDHIDQLKLILRLVGTPGAELLKKISSESARNYIQSLAQMPKMNFANVFIGANPLAVDLLEKMLVLDSDKRITAAQALAHAYFAQYHDPDDEPVAEPYDQSFESRDFLIDEWKSLTYDEVISFVPPPLDQEEMES

Variants of B1 are the subject of the assay.
With chain 1 K4A, chain 1 G5A, the screen value was 0.605 Z-score of the enrichment rate within one screen of 711 sequences.
Regarding chain 1 P10I, the screen value is 0.802 Z-score of the enrichment rate within one screen of 711 sequences.
With chain 1 P10H, the screen value is 1.57 Z-score of the enrichment rate within one screen of 711 sequences.
Consider chain 1 P10G, for which the screen value is 0.241 Z-score of the enrichment rate within one screen of 711 sequences.
Take chain 1 P10Q: the screen value is 0.417 Z-score of the enrichment rate within one screen of 711 sequences.
For chain 1 P10N the value was 0.284 Z-score of the enrichment rate within one screen of 711 sequences; for chain 1 P10R, 1.04 Z-score of the enrichment rate within one screen of 711 sequences; for chain 1 P10E, -0.594 Z-score of the enrichment rate within one screen of 711 sequences.
As to chain 1 S3A, chain 1 I14A, the screen value is -0.936 Z-score of the enrichment rate within one screen of 711 sequences.
Take chain 1 K7A, chain 1 K13A: the screen value is -0.71 Z-score of the enrichment rate within one screen of 711 sequences.
With chain 1 N9L, the screen value is 1.77 Z-score of the enrichment rate within one screen of 711 sequences.
For chain 1 N9Q, the screen value was 0.874 Z-score of the enrichment rate within one screen of 711 sequences.
Consider chain 1 N9D, for which the screen value is 0.0592 Z-score of the enrichment rate within one screen of 711 sequences.
For chain 1 N9G the value was 1.54 Z-score of the enrichment rate within one screen of 711 sequences; for chain 1 N9V, 0.914 Z-score of the enrichment rate within one screen of 711 sequences.
For chain 1 N9R the value was 2.08 Z-score of the enrichment rate within one screen of 711 sequences; for chain 1 N9F, 1.54 Z-score of the enrichment rate within one screen of 711 sequences; for chain 1 N9Y, 1.25 Z-score of the enrichment rate within one screen of 711 sequences.
For chain 1 N9W the value was 1.99 Z-score of the enrichment rate within one screen of 711 sequences.
As for chain 1 K4A, chain 1 N9A, the screen value was 0.386 Z-score of the enrichment rate within one screen of 711 sequences.
In the case of chain 1 K4A, chain 1 P10A it was -0.0905 Z-score of the enrichment rate within one screen of 711 sequences; in that of chain 1 R8A, chain 1 K13A, -1.04 Z-score of the enrichment rate within one screen of 711 sequences.
In the case of chain 1 K7F it was 1.5 Z-score of the enrichment rate within one screen of 711 sequences; in that of chain 1 K7H, 0.776 Z-score of the enrichment rate within one screen of 711 sequences; in that of chain 1 K7Y, 0.574 Z-score of the enrichment rate within one screen of 711 sequences.
For the variant chain 1 K7A, the screen value was 0.591 Z-score of the enrichment rate within one screen of 711 sequences.
For chain 1 K7Q the value was 0.531 Z-score of the enrichment rate within one screen of 711 sequences.
In the case of chain 1 K7C it was 1.13 Z-score of the enrichment rate within one screen of 711 sequences.
For chain 1 K7I the value was 0.69 Z-score of the enrichment rate within one screen of 711 sequences.
As to chain 1 K7N, the screen value is 1.02 Z-score of the enrichment rate within one screen of 711 sequences.
With chain 1 K7W, the screen value was 1.32 Z-score of the enrichment rate within one screen of 711 sequences.
In the case of chain 1 K7P it was 0.368 Z-score of the enrichment rate within one screen of 711 sequences; in that of chain 1 K7T, 0.476 Z-score of the enrichment rate within one screen of 711 sequences.
For chain 1 K7M the value was 1.7 Z-score of the enrichment rate within one screen of 711 sequences.
In the case of chain 1 G11N it was 1.3 Z-score of the enrichment rate within one screen of 711 sequences; in that of chain 1 G11T, 1.22 Z-score of the enrichment rate within one screen of 711 sequences.
chain 1 G11H: the screen value was 1.37 Z-score of the enrichment rate within one screen of 711 sequences.
On to chain 1 G11W, for which the screen value was 0.816 Z-score of the enrichment rate within one screen of 711 sequences.
For chain 1 G11P, the screen value was -0.211 Z-score of the enrichment rate within one screen of 711 sequences.
In the case of chain 1 G11C it was 1.37 Z-score of the enrichment rate within one screen of 711 sequences; in that of chain 1 G11Q, 1.09 Z-score of the enrichment rate within one screen of 711 sequences.
As to chain 1 G11I, the screen value was 0.58 Z-score of the enrichment rate within one screen of 711 sequences.
For chain 1 G11L the value was 1 Z-score of the enrichment rate within one screen of 711 sequences; for chain 1 K16M, 1.69 Z-score of the enrichment rate within one screen of 711 sequences.
In the case of chain 1 K16W it was 0.661 Z-score of the enrichment rate within one screen of 711 sequences.
As to chain 1 K16E, the screen value is -0.612 Z-score of the enrichment rate within one screen of 711 sequences.
For the variant chain 1 K16R, the screen value is 1.75 Z-score of the enrichment rate within one screen of 711 sequences.
In the case of chain 1 K16V, the screen value was 0.706 Z-score of the enrichment rate within one screen of 711 sequences.
In the case of chain 1 K16C it was 0.392 Z-score of the enrichment rate within one screen of 711 sequences; in that of chain 1 K16Y, -0.107 Z-score of the enrichment rate within one screen of 711 sequences; in that of chain 1 R8A, chain 1 N9A, -0.113 Z-score of the enrichment rate within one screen of 711 sequences.
For chain 1 S3R the value was 2.3 Z-score of the enrichment rate within one screen of 711 sequences; for chain 1 S3V, 1.42 Z-score of the enrichment rate within one screen of 711 sequences.
As for chain 1 S3Q, the screen value was 1.81 Z-score of the enrichment rate within one screen of 711 sequences.
For chain 1 S3A the value was 1.56 Z-score of the enrichment rate within one screen of 711 sequences.
For chain 1 S3G the value was 1.64 Z-score of the enrichment rate within one screen of 711 sequences; for chain 1 S3Y, 1.82 Z-score of the enrichment rate within one screen of 711 sequences.
For the variant chain 1 S3A, chain 1 K7A, the screen value is 0.46 Z-score of the enrichment rate within one screen of 711 sequences.
Turning to chain 1 N9A, chain 1 L12A, the screen value was -0.96 Z-score of the enrichment rate within one screen of 711 sequences.
Consider chain 1 G5A, chain 1 K16A, for which the screen value was 0.905 Z-score of the enrichment rate within one screen of 711 sequences.
In the case of chain 1 G5A, chain 1 P10A it was 0.354 Z-score of the enrichment rate within one screen of 711 sequences; in that of chain 1 S3A, chain 1 P10A, 0.521 Z-score of the enrichment rate within one screen of 711 sequences; in that of chain 1 K6A, chain 1 P15A, 1.01 Z-score of the enrichment rate within one screen of 711 sequences.
Take chain 1 P10A, chain 1 K13A: the screen value is -0.927 Z-score of the enrichment rate within one screen of 711 sequences.
Consider chain 1 K4S, for which the screen value was 0.887 Z-score of the enrichment rate within one screen of 711 sequences.
Take chain 1 K4A: the screen value was 0.525 Z-score of the enrichment rate within one screen of 711 sequences.
In the case of chain 1 K4R it was 2.04 Z-score of the enrichment rate within one screen of 711 sequences.
For chain 1 K4L the value was 1.3 Z-score of the enrichment rate within one screen of 711 sequences.
In the case of chain 1 I14F it was -0.0574 Z-score of the enrichment rate within one screen of 711 sequences; in that of chain 1 I14Q, -1.07 Z-score of the enrichment rate within one screen of 711 sequences.
As to chain 1 I14A, the screen value is -0.785 Z-score of the enrichment rate within one screen of 711 sequences.
In the case of chain 1 I14V, the screen value was -0.578 Z-score of the enrichment rate within one screen of 711 sequences.
For chain 1 I14M the value was 0.51 Z-score of the enrichment rate within one screen of 711 sequences.
As to chain 1 I14E, the screen value is -0.921 Z-score of the enrichment rate within one screen of 711 sequences.
Regarding chain 1 P10A, chain 1 K16A, the screen value was -0.276 Z-score of the enrichment rate within one screen of 711 sequences.

These data come from article doi:10.1101/2021.08.20.457142.
